Reference: publication doi:10.1101/771139 (bioRxiv, 2020)

Biological target: the molecule itself
Test: […]

B1: Bacillus subtilis SepF (natural protein)
chain: MSMKNKLKNFFSMEDEEYEYEYIETERESHEEHEQKEKPAYNGNKPAGKQNVVSLQSVQKSSKVVLSEPRVYAEAQEIADHLKNRRAVVVNLQRIQHDQAKRIVDFLSGTVYAIGGDIQRIGSDIFLCTPDNVDVSGTISELISEDEHQRW
  binding result: binds
